Reference: PMC5797543

Columns and labels:
[1] = molecular target: recombinant HLA-B*15:01 (heavy chain with human β2-microglobulin light chain) (human)
[2] = molecular target: recombinant HLA-A*01:01 (heavy chain with human β2-microglobulin light chain) (human)

Row | melting temperature (Tm) of the purified p/MHC complex, differential scanning fluorimetry [1] [°C] | thermal stability (Tm) of the purified p/MHC complex, differential scanning fluorimetry [2] [°C] | Binder
1 | 53.4 | 46.7 | AQDIYRASY [ALK R1275Q-derived nonamer neoepitope (…)]
2 | 59.3 | 47.9 | AQDIYRASYY [ALK R1275Q-derived decamer neoepitope (…)]
